The record followed here is patent US20250161408A1, “PEPTIDIC INHIBITORS OF AMYLOID SELF- AND CROSS-ASSEMBLY” (TECHNISCHE UNIVERSITÄT MÜNCHEN, priority 2022, published 2025).

Experiment [1] concerns the target islet amyloid polypeptide (IAPP) (human) (UniProt P10997).
For experiment [2], the target named is Aβ42 (Homo sapiens (Human)) (UniProt P05067).

Non-standard residues stand in square brackets, D forms with d. NMeF = CN[C@@H](Cc1ccccc1)C(=O)O; NMeL = CN[C@@H](CC(C)C)C(=O)O; NMeV = CN[C@H](C(=O)O)C(C)C; Nle = CCCC[C@H](N)C(=O)O

Sequence of islet amyloid polypeptide (IAPP) (human) (P10997 34-70): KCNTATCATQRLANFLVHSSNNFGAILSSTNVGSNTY

B1: L3-LF (peptide)
peptide: H-QK[NMeL]V[NMeF]FAEDLLLNKGAIIGL[Nle]VGGVV-OH
SMILES: CCCC[C@H](NC(=O)[C@H](CC(C)C)NC(=O)CNC(=O)[C@@H](NC(=O)[C@@H](NC(=O)[C@H](C)NC(=O)CNC(=O)[C@H](CCCCN)NC(=O)[C@H](CC(N)=O)NC(=O)[C@H](CC(C)C)NC(=O)[C@H](CC(C)C)NC(=O)[C@H](CC(C)C)NC(=O)[C@H](CC(=O)O)NC(=O)[C@H](CCC(=O)O)NC(=O)[C@H](C)NC(=O)[C@H](Cc1ccccc1)NC(=O)[C@H](Cc1ccccc1)N(C)C(=O)[C@@H](NC(=O)[C@H](CC(C)C)N(C)C(=O)[C@H](CCCCN)NC(=O)[C@@H](N)CCC(N)=O)C(C)C)[C@@H](C)CC)[C@@H](C)CC)C(=O)N[C@H](C(=O)NCC(=O)NCC(=O)N[C@H](C(=O)N[C@H](C(=O)O)C(C)C)C(C)C)C(C)C
B1 returned an IC50 of inhibitory effect on IAPP-mediated cell damage (MTT reduction, RIN5fm cells) in experiment [1] of 133 nM.

B2: Nle3-LF (peptide)
peptide: H-QK[NMeL]V[NMeF]FAED[Nle][Nle][Nle]NKGAIIGL[Nle]VGGVV-OH
SMILES: CCCC[C@H](NC(=O)[C@H](CC(=O)O)NC(=O)[C@H](CCC(=O)O)NC(=O)[C@H](C)NC(=O)[C@H](Cc1ccccc1)NC(=O)[C@H](Cc1ccccc1)N(C)C(=O)[C@@H](NC(=O)[C@H](CC(C)C)N(C)C(=O)[C@H](CCCCN)NC(=O)[C@@H](N)CCC(N)=O)C(C)C)C(=O)N[C@@H](CCCC)C(=O)N[C@@H](CCCC)C(=O)N[C@@H](CC(N)=O)C(=O)N[C@@H](CCCCN)C(=O)NCC(=O)N[C@@H](C)C(=O)N[C@H](C(=O)N[C@H](C(=O)NCC(=O)N[C@@H](CC(C)C)C(=O)N[C@@H](CCCC)C(=O)N[C@H](C(=O)NCC(=O)NCC(=O)N[C@H](C(=O)N[C@H](C(=O)O)C(C)C)C(C)C)C(C)C)[C@@H](C)CC)[C@@H](C)CC
As for B2, the IC50 of inhibitory effect on IAPP-mediated cell damage (MTT reduction, RIN5fm cells) in experiment [1] was determined as 82.1 nM.

B3: Nle3-VF (peptide)
peptide: H-QKL[NMeV]F[NMeF]AED[Nle][Nle][Nle]NKGAIIGL[Nle]VGGVV-OH
SMILES: CCCC[C@H](NC(=O)[C@H](CC(=O)O)NC(=O)[C@H](CCC(=O)O)NC(=O)[C@H](C)NC(=O)[C@H](Cc1ccccc1)N(C)C(=O)[C@H](Cc1ccccc1)NC(=O)[C@H](C(C)C)N(C)C(=O)[C@H](CC(C)C)NC(=O)[C@H](CCCCN)NC(=O)[C@@H](N)CCC(N)=O)C(=O)N[C@@H](CCCC)C(=O)N[C@@H](CCCC)C(=O)N[C@@H](CC(N)=O)C(=O)N[C@@H](CCCCN)C(=O)NCC(=O)N[C@@H](C)C(=O)N[C@H](C(=O)N[C@H](C(=O)NCC(=O)N[C@@H](CC(C)C)C(=O)N[C@@H](CCCC)C(=O)N[C@H](C(=O)NCC(=O)NCC(=O)N[C@H](C(=O)N[C@H](C(=O)O)C(C)C)C(C)C)C(C)C)[C@@H](C)CC)[C@@H](C)CC
B3 registered an IC50 of inhibitory effect on Aβ42-mediated cell damage (MTT reduction, PC12 cells) in experiment [2] of 367 nM. For the same molecule, in experiment [1], the IC50 of inhibitory effect on IAPP-mediated cell damage (MTT reduction, RIN5fm cells) was determined as 65 nM.

B4: L3-VF (peptide)
peptide: H-QKL[NMeV]F[NMeF]AEDLLLNKGAIIGL[Nle]VGGVV-OH
SMILES: CCCC[C@H](NC(=O)[C@H](CC(C)C)NC(=O)CNC(=O)[C@@H](NC(=O)[C@@H](NC(=O)[C@H](C)NC(=O)CNC(=O)[C@H](CCCCN)NC(=O)[C@H](CC(N)=O)NC(=O)[C@H](CC(C)C)NC(=O)[C@H](CC(C)C)NC(=O)[C@H](CC(C)C)NC(=O)[C@H](CC(=O)O)NC(=O)[C@H](CCC(=O)O)NC(=O)[C@H](C)NC(=O)[C@H](Cc1ccccc1)N(C)C(=O)[C@H](Cc1ccccc1)NC(=O)[C@H](C(C)C)N(C)C(=O)[C@H](CC(C)C)NC(=O)[C@H](CCCCN)NC(=O)[C@@H](N)CCC(N)=O)[C@@H](C)CC)[C@@H](C)CC)C(=O)N[C@H](C(=O)NCC(=O)NCC(=O)N[C@H](C(=O)N[C@H](C(=O)O)C(C)C)C(C)C)C(C)C
For the molecule B4, the IC50 of inhibitory effect on Aβ42-mediated cell damage (MTT reduction, PC12 cells) in experiment [2] was 261 nM. The same molecule gave an IC50 of inhibitory effect on IAPP-mediated cell damage (MTT reduction, RIN5fm cells) in experiment [1] of 112 nM.

B5: F3-VF (peptide)
peptide: H-QKL[NMeV]F[NMeF]AEDFFFNKGAIIGL[Nle]VGGVV-OH
SMILES: CCCC[C@H](NC(=O)[C@H](CC(C)C)NC(=O)CNC(=O)[C@@H](NC(=O)[C@@H](NC(=O)[C@H](C)NC(=O)CNC(=O)[C@H](CCCCN)NC(=O)[C@H](CC(N)=O)NC(=O)[C@H](Cc1ccccc1)NC(=O)[C@H](Cc1ccccc1)NC(=O)[C@H](Cc1ccccc1)NC(=O)[C@H](CC(=O)O)NC(=O)[C@H](CCC(=O)O)NC(=O)[C@H](C)NC(=O)[C@H](Cc1ccccc1)N(C)C(=O)[C@H](Cc1ccccc1)NC(=O)[C@H](C(C)C)N(C)C(=O)[C@H](CC(C)C)NC(=O)[C@H](CCCCN)NC(=O)[C@@H](N)CCC(N)=O)[C@@H](C)CC)[C@@H](C)CC)C(=O)N[C@H](C(=O)NCC(=O)NCC(=O)N[C@H](C(=O)N[C@H](C(=O)O)C(C)C)C(C)C)C(C)C
B5 gave an IC50 of inhibitory effect on Aβ42-mediated cell damage (MTT reduction, PC12 cells) in experiment [2] of 1030 nM. In experiment [1], the IC50 of inhibitory effect on IAPP-mediated cell damage (MTT reduction, RIN5fm cells) is 78.5 nM.

B6: F3-LF (peptide)
peptide: H-QK[NMeL]V[NMeF]FAEDFFFNKGAIIGL[Nle]VGGVV-OH
SMILES: CCCC[C@H](NC(=O)[C@H](CC(C)C)NC(=O)CNC(=O)[C@@H](NC(=O)[C@@H](NC(=O)[C@H](C)NC(=O)CNC(=O)[C@H](CCCCN)NC(=O)[C@H](CC(N)=O)NC(=O)[C@H](Cc1ccccc1)NC(=O)[C@H](Cc1ccccc1)NC(=O)[C@H](Cc1ccccc1)NC(=O)[C@H](CC(=O)O)NC(=O)[C@H](CCC(=O)O)NC(=O)[C@H](C)NC(=O)[C@H](Cc1ccccc1)NC(=O)[C@H](Cc1ccccc1)N(C)C(=O)[C@@H](NC(=O)[C@H](CC(C)C)N(C)C(=O)[C@H](CCCCN)NC(=O)[C@@H](N)CCC(N)=O)C(C)C)[C@@H](C)CC)[C@@H](C)CC)C(=O)N[C@H](C(=O)NCC(=O)NCC(=O)N[C@H](C(=O)N[C@H](C(=O)O)C(C)C)C(C)C)C(C)C
In the case of B6, in experiment [2], the IC50 of inhibitory effect on Aβ42-mediated cell damage (MTT reduction, PC12 cells) amounted to 262 nM. The molecule further displayed an IC50 of inhibitory effect on IAPP-mediated cell damage (MTT reduction, RIN5fm cells) in experiment [1] of 41.7 nM.
